What was measured:
[1] = target: XENP38865 (IL18×Fab-Fc fusion, IL18 4CS/K53A, silent Fv) (human); experiment: cell-based or functional assay
[2] = target: XENP37827 (IL18×Fab-Fc fusion with WT-4CS IL18 and a silent Fv) (human); experiment: cell-based or functional assay
Sequence of XENP37827 (IL18×Fab-Fc fusion with WT-4CS IL18 and a silent Fv) (human) (Q14116 other isoform, or with tags, fused parts or gaps): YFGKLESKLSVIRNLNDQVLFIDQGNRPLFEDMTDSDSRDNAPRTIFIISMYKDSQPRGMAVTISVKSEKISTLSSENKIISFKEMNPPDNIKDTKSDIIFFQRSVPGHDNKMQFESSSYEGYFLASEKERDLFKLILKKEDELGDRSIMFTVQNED

Sequence of XENP38865 (IL18×Fab-Fc fusion, IL18 4CS/K53A, silent Fv) (human) (Q14116 other isoform, or with tags, fused parts or gaps K53A K53A): as the sequence (Q14116 other isoform, or with tags, fused parts or gaps) above, with K53A counted along it

IC50 of dose dependent inhibition of KG-1 cell activation (induction of PD-L1 expression) by IL18BP at fixed concentration (10 nM) of the IL18 fusion [1]: 88.7 nM
IC50 of dose dependent inhibition of KG-1 cell activation (induction of PD-L1 expression) by IL18BP at fixed concentration (10 nM) of the IL18 fusion [2]: 5.5 nM
Substance: IL18 binding protein (IL18BP) (from UniProt O95998 31-194)
